Source: patent US12195506B2, “Immunotherapy with A*01 restricted peptides and combination of peptides against cancers and related methods” (Immatics Biotechnologies GmbH, priority 2018, dated 2025)

Test system: CD8+ T cells
Assay: In vitro T-cell priming assay with artificial antigen presenting cells loaded with peptide/MHC complexes and anti-CD28 antibody, pMHC multimer readout
Assay type: cell-based, human
Settings: Table 10a; in vitro immunogenicity, peptide-specific multimer+ CD8+ T cells
Text: In order to obtain information regarding the immunogenicity of the TUMAPs of the present invention, the inventors performed investigations using an in vitro T-cell priming assay based on repeated stimulations of CD8+ T cells with artificial antigen presenting cells (aAPCs) loaded with peptide/MHC complexes and anti-CD28 antibody.
In order to perform in vitro stimulations by artificial antigen presenting cells loaded with peptide-MHC complex (pMHC) and anti-CD28 antibody, the inventors first isolated CD8+ T cells from fresh HLA-A*02 leukapheresis products via positive selection using CD8 microbeads (Miltenyi Biotec, Bergisch-Gladbach, Germany) of healthy donors obtained from the University clinics Mannheim, Germany, after informed consent.
PBMCs and isolated CD8+ lymphocytes were incubated in T-cell medium (TCM) until use consisting of RPMI-Glutamax (Invitrogen, Karlsruhe, Germany) supplemented with 10% heat inactivated human AB serum (PAN-Biotech, Aidenbach, Germany), 100 U/ml Penicillin/100 μg/ml Streptomycin (Cambrex, Cologne, Germany), 1 mM sodium pyruvate (CC Pro, Oberdorla, Germany), 20 μg/ml Gentamycin (Cambrex). 2.5 ng/ml IL-7 (PromoCell, Heidelberg, Germany) and 10 U/ml IL-2 (Novartis Pharma, Nurnberg, Germany) were also added to the TCM at this step.
Generation of pMHC/anti-CD28 coated beads, T-cell stimulations and readout was performed in a highly defined in vitro system using four different pMHC molecules per stimulation condition and 8 different pMHC molecules per readout condition.
The purified co-stimulatory mouse IgG2a anti human CD28 Ab 9.3 (Jung et al., 1987) was chemically biotinylated using Sulfo-N-hydroxysuccinimidobiotin as recommended by the manufacturer (Perbio, Bonn, Germany). Beads used were 5.6 μm diameter streptavidin coated polystyrene particles (Bangs Laboratories, Illinois, USA).
pMHC used for positive and negative control stimulations were A*0201/MLA-001 (peptide […] (SEQ ID NO. 433) from modified Melan-A/MART-1) and A*0201/DDX5-001 ([…] from DDX5, SEQ ID NO. 434), respectively.
800.000 beads/200 μI were coated in 96-well plates in the presence of 4×12.5 ng different biotin-pMHC, washed and 600 ng biotin anti-CD28 were added subsequently in a volume of 200 μI. Stimulations were initiated in 96-well plates by co-incubating 1×10^6 CD8+ T cells with 2×10^5 washed coated beads in 200 μI TCM supplemented with 5 ng/ml IL-12 (PromoCell) for 3 days at 37° C. Half of the medium was then exchanged by fresh TCM supplemented with 80 U/ml IL-2 and incubating was continued for 4 days at 37° C. This stimulation cycle was performed for a total of three times. For the pMHC multimer readout using 8 different pMHC molecules per condition, a two-dimensional combinatorial coding approach was used as previously described (Andersen et al., 2012) with minor modifications encompassing coupling to 5 different fluorochromes. Finally, multimeric analyses were performed by staining the cells with Live/dead near IR dye (Invitrogen, Karlsruhe, Germany), CD8-FITC antibody clone SK1 (BD, Heidelberg, Germany) and fluorescent pMHC multimers. For analysis, a BD LSRII SORP cytometer equipped with appropriate lasers and filters was used. Peptide specific cells were calculated as percentage of total CD8+ cells. Evaluation of multimeric analysis was done using the FlowJo software (Tree Star, Oregon, USA). In vitro priming of specific multimer+CD8+ lymphocytes was detected by comparing to negative control stimulations.

Row | Substance | Wells positive [%]
1 | 399 (YVGKEHMFY; listed as Homo sapiens) [compound 399] | + (<20% = +)
2 | 400 (NTDNNLAVY; listed as Homo sapiens) [compound 400] | + (<20% = +)
3 | 401 (VWSNVTPLKF; listed as Homo sapiens) [compound 401] | + (<20% = +)
4 | 403 (SADDIRGIQSLY; listed as Homo sapiens) [compound 403] | + (<20% = +)
5 | 404 (FVDNQYWRY; listed as Homo sapiens) [compound 404] | + (<20% = +)
6 | 408 (VWSDVTPLTF; listed as Homo sapiens) [compound 408] | + (<20% = +)
7 | 414 (LTEGHSGNYY; listed as Homo sapiens) [compound 414] | + (<20% = +)
8 | 415 (VWSDVTPLNF; listed as Homo sapiens) [compound 415] | + (<20% = +)
9 | 417 (KLDRSVFTAY; listed as Homo sapiens) [compound 417] | ++++ (>= 70% = ++++)
10 | 420 (VTDLEMPHY; listed as Homo sapiens) [compound 420] | + (<20% = +)
11 | 421 (RSDPGGGGLAY; listed as Homo sapiens) [compound 421] | + (<20% = +)
12 | 427 (LTDYINANY; listed as Homo sapiens) [compound 427] | + (<20% = +)
13 | 429 (VSDSECLSRY; listed as Homo sapiens) [compound 429] | ++ (20%-49% = ++)

Same assay, conditions: Table 10b; in vitro immunogenicity, peptide-specific multimer+ CD8+ T cells

Row | Substance | Wells positive [%]
14 | 10 (VSERTGISY; listed as Homo sapiens) [compound 10] | + (<20% = +)
15 | 11 (ASDHWRGRY; listed as Homo sapiens) [compound 11] | +++ (50%-69% = +++)
16 | 12 (YTDFVGEGLY; listed as Homo sapiens) [compound 12] | + (<20% = +)

Target: HLA-A*01:01 (Homo sapiens, UniProt P04439, A114D/A174V/A182V/D101N/D185E/E176A/E190D/L180R/Q94H/R68K/S129P/T187R/V100A/V91M/W191G)
Assay: MHC binding assay: UV-ligand exchange, ELISA of stabilized MHC complexes (peptide exchange yield)
Settings: binding to HLA-A*01:01, UV-ligand exchange
Method in brief: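 Peptide–MHC complexes were formed by UV-induced exchange of a photocleavable ligand for the test peptide. Exchange yield was measured by streptavidin-capture ELISA of 100-fold diluted complexes, detected with HRP anti-β2m at A450. Refolded HLA-A*02:01/MLA-001 monomers at 15-500 ng/ml served as standards.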

Row | Substance | Peptide exchange
17 | 10 (VSERTGISY; listed as Homo sapiens) [compound 10] | +++ (>50 = +++)
18 | 11 (ASDHWRGRY; listed as Homo sapiens) [compound 11] | +++ (>50 = +++)
19 | 12 (YTDFVGEGLY; listed as Homo sapiens) [compound 12] | +++ (>50 = +++)
20 | 353 (RLNGSVASY; listed as Homo sapiens) [compound 353] | ++ (>20% = ++)
21 | 354 (EIIRYIFAY; listed as Homo sapiens) [compound 354] | ++ (>20% = ++)
22 | 355 (MADRGEARL; listed as Homo sapiens) [compound 355] | ++ (>20% = ++)
23 | 356 (NSENHILKY; listed as Homo sapiens) [compound 356] | ++++ (>75% = ++++)
24 | 357 (MSPDIALLYL; listed as Homo sapiens) [compound 357] | +++ (>50 = +++)
25 | 358 (YMSPDIALLY; listed as Homo sapiens) [compound 358] | ++++ (>75% = ++++)
26 | 359 (NKEINYFMY; listed as Homo sapiens) [compound 359] | +++ (>50 = +++)
27 | 360 (RFDDINQEF; listed as Homo sapiens) [compound 360] | + (>10% =+)
28 | 361 (FTAEEGQLY; listed as Homo sapiens) [compound 361] | +++ (>50 = +++)
29 | 362 (SGALDEAAAY; listed as Homo sapiens) [compound 362] | ++ (>20% = ++)
30 | 363 (LTDRDVSFY; listed as Homo sapiens) [compound 363] | ++++ (>75% = ++++)
31 | 364 (DTGYLQLYY; listed as Homo sapiens) [compound 364] | ++++ (>75% = ++++)
32 | 365 (FVDTKVPEH; listed as Homo sapiens) [compound 365] | ++ (>20% = ++)
33 | 366 (ITVDVRDEF; listed as Homo sapiens) [compound 366] | + (>10% =+)
34 | 367 (LTDTGYLQLY; listed as Homo sapiens) [compound 367] | ++++ (>75% = ++++)
35 | 368 (ESAATGQLDY; listed as Homo sapiens) [compound 368] | +++ (>50 = +++)
36 | 369 (AVMEAAFVY; listed as Homo sapiens) [compound 369] | +++ (>50 = +++)
37 | 370 (RLSTIRHLY; listed as Homo sapiens) [compound 370] | +++ (>50 = +++)
38 | 371 (WSDSTSQTIY; listed as Homo sapiens) [compound 371] | ++++ (>75% = ++++)
39 | 372 (SRSDFEWVY; listed as Homo sapiens) [compound 372] | ++ (>20% = ++)

Row | Substance | Peptide exchange
40 | 373 (FHADSDDESF; listed as Homo sapiens) [compound 373] | + (>10% =+)
41 | 375 (ASSLDSLHY; listed as Homo sapiens) [compound 375] | ++++ (>75% = ++++)
42 | 376 (EDDEDEDLY; listed as Homo sapiens) [compound 376] | +++ (>50 = +++)
43 | 377 (YADPSANRDLL; listed as Homo sapiens) [compound 377] | ++ (>20% = ++)
44 | 378 (TAKAPSTEY; listed as Homo sapiens) [compound 378] | ++ (>20% = ++)
45 | 379 (SLIIDDTEY; listed as Homo sapiens) [compound 379] | ++ (>20% = ++)
46 | 380 (VACGNNPVY; listed as Homo sapiens) [compound 380] | +++ (>50 = +++)
47 | 381 (ETSFSTSHY; listed as Homo sapiens) [compound 381] | ++++ (>75% = ++++)
48 | 382 (YEPATMEQY; listed as Homo sapiens) [compound 382] | ++ (>20% = ++)
49 | 383 (PPDHAVGRTKY; listed as Homo sapiens) [compound 383] | ++ (>20% = ++)
50 | 384 (RFRSITQSYY; listed as Homo sapiens) [compound 384] | + (>10% =+)
51 | 385 (SANALILTY; listed as Homo sapiens) [compound 385] | ++ (>20% = ++)
52 | 388 (YTAHVGYSMY; listed as Homo sapiens) [compound 388] | ++++ (>75% = ++++)
53 | 389 (YYDLVESTF; listed as Homo sapiens) [compound 389] | + (>10% =+)
54 | 390 (FSEPFHLIVSY; listed as Homo sapiens) [compound 390] | ++++ (>75% = ++++)
55 | 391 (GSNPARYEF; listed as Homo sapiens) [compound 391] | ++ (>20% = ++)
56 | 392 (TQHFVQENY; listed as Homo sapiens) [compound 392] | ++ (>20% = ++)
57 | 393 (QVWGGQPVY; listed as Homo sapiens) [compound 393] | + (>10% =+)
58 | 394 (QVPLDCVLY; listed as Homo sapiens) [compound 394] | ++ (>20% = ++)
59 | 395 (ILKGGSGTY; listed as Homo sapiens) [compound 395] | ++ (>20% = ++)
60 | 396 (LPDPNVQKY; listed as Homo sapiens) [compound 396] | ++ (>20% = ++)
61 | 397 (NSAINPLIY; listed as Homo sapiens) [compound 397] | ++++ (>75% = ++++)
62 | 398 (YYYDTHTNTY; listed as Homo sapiens) [compound 398] | + (>10% =+)
